# B1: REGN10987 Fab (Fab, V domains shown)
# VH: QVQLVESGGGVVQPGRSLRLSCAASGFTFSNYAMYWVRQAPGKGLEWVAVISYDGSNKYYADSVKGRFTISRDNSKNTLYLQMNSLRTEDTAVYYCASGSDYGDYLLVYWGQGTLVTVSS
# VL: QSALTQPASVSGSPGQSITISCTGTSSDVGGYNYVSWYQQHPGKAPKLMIYDVSKRPSGVSNRFSGSKSGNTASLTISGLQSEDEADYYCNSLTSISTWVFGGGTKLTVL
# Target: 6P stabilised SARS-CoV-2 spike protein (SARS-CoV-2, original (Wuhan) strain, UniProt P0DTC2, stabilised)
# Assay: cryo-EM structure
# Conditions: both partners purified
binder,measurement,value
B1,binding result,binds

# Source: paper doi:10.1101/2024.10.03.616038 (bioRxiv, 2024)
